This is an account of results in publication PMC5191963 (Hepatology (Baltimore, Md.), 2016).

Changes are numbered by the printed parent chain. Numbers in names are those of the source. Where two headings read alike, the source gives them in different places.

Holding throughout (test): BLI
Background: Biolayer interferometry detects binding as a change in optical thickness at a sensor tip.

The target in assay [1] is T1, GST-tagged AIM2 (Invitrogen) (UniProt O14862 1-343).
T1 sequence (looked up): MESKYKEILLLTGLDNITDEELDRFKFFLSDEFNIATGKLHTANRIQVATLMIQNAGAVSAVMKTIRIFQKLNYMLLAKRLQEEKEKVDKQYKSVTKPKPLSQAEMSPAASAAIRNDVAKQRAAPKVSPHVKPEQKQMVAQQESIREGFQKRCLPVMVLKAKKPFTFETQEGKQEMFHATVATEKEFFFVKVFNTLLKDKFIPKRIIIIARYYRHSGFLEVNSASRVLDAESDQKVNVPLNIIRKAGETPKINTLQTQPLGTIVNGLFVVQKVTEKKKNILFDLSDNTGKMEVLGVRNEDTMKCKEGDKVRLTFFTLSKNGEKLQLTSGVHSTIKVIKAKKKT

In assay [2] the target is T1, GST-tagged AIM2 (Invitrogen). This is another data set of the same source.
The target is the same in assay [3]. The source holds these as a separate data set.
For assay [4] the target is unchanged. The source holds these as a separate data set.
Assay [5] has the same target. The source holds these as a separate data set.

B1: Recombinant HMGB1 A box (disulfide form, not treated with DTT) (domain or fragment)
chain: MGKGDPKKPRGKMSSYAFFVQTCREEHKKKHPDASVNFSEFSKKCSERWKTMSAKEKGKFEDMAKADKARYEREMKTYI
modifications: disulfide form (the paper calls the A box without DTT its disulfide form)
As to B1, in assay [1], the affinity, expressed as Kd, was 41 nM; the off-rate (koff) amounted to 0.00261 s⁻¹; the kon stood at 64000 M⁻¹ s⁻¹.

B2: Recombinant HMGB1 (disulfide HMGB1, not treated with DTT) (natural protein, human, UniProt P09429 1-215, looked up)
chain: MGKGDPKKPRGKMSSYAFFVQTCREEHKKKHPDASVNFSEFSKKCSERWKTMSAKEKGKFEDMAKADKARYEREMKTYIPPKGETKKKFKDPNAPKRPPSAFFLFCSEYRPKIKGEHPGLSIGDVAKKLGEMWNNTAADDKQPYEKKAAKLKEKYEKDIAAYRAKGKPDAAKKGVVKAEKSKKKKEEEEDEEDEEDEEEEEDEEDEDEEEDDDDE
modifications: disulfide bond between cysteines 23 and 45 (the paper calls the protein without DTT disulfide HMGB1)
As to B2, the Kd in assay [2] worked out at 20 nM; in assay [3], 8 nM; in assay [4] it was 25 nM; in assay [1] it was 23 nM. For the same molecule, the koff in assay [2] is 0.00034 s⁻¹; in assay [3], 0.00014 s⁻¹; in assay [4], 0.00033 s⁻¹; in assay [1], 0.00034 s⁻¹. Moreover, the on-rate (kon) in assay [2] was determined as 17000 M⁻¹ s⁻¹; in assay [3], 17000 M⁻¹ s⁻¹; in assay [4], 13000 M⁻¹ s⁻¹; in assay [1], 14000 M⁻¹ s⁻¹.

B3: Recombinant HMGB1, fully reduced all-thiol form (5 mM DTT) (natural protein, human, UniProt P09429 1-215, looked up)
chain: B2 chain
With B3, in assay [5], the Kd worked out at 13 nM, the koff is 0.00038 s⁻¹ and the kon was determined as 30000 M⁻¹ s⁻¹.

B4: Recombinant HMGB1(C23S) (natural protein, human, UniProt P09429 1-215, looked up)
chain: B2 chain with C23S
In assay [1], B4 had a Kd of 12 nM, a koff of 0.0003 s⁻¹ and a kon of 25000 M⁻¹ s⁻¹.

B5: Recombinant HMGB1(C45S) (natural protein, human, UniProt P09429 1-215, looked up)
chain: B2 chain with C45S
For B5, in assay [1], the Kd came out at 13 nM, the koff was determined as 0.00036 s⁻¹ and the kon came to 27000 M⁻¹ s⁻¹.

Broadly, the Kd is the free concentration of one partner at which half of the binding sites on the other are occupied at equilibrium, for simple one-to-one binding. Low values mean tighter binding, high ones weaker binding. What is called koff is the rate constant with which the complex falls apart. Usually kon stands for the second-order rate constant of association. The low end stands for slow association, the high end for fast association.
